Test results reported in doi:10.1101/2023.10.24.563787 (bioRxiv, 2023).

Target: the molecule itself
Assay: cryo-EM structure

B1: 3xFLAG-Lip1, small regulatory subunit of the yeast ceramide synthase (CerS) complex (natural protein, S. cerevisiae)
chain: PKIFNLFRVCFISLLLIAAVEYFKYGTRINYEWFHCTPIKEPQSGSVIKLWARGGPSCDKRGEYKTIVKRITRDYEPNDEHLSFCIIENDNVPPVHYPIHEDKGEPGYVAYVGYDTDSELVQELCADSTIYHM
stoichiometry N: 2
